These results are taken from patent US20250157661.

The series relates to Indicator molecule containing the cleavable sequence GPQGIFGQ with a terminal biotin group connected via a polyethylene glycol spacer/linker (intact, Examples 1-6).

Sequence of Active MMP-9 (Alere San Diego) (chain, as listed by the source): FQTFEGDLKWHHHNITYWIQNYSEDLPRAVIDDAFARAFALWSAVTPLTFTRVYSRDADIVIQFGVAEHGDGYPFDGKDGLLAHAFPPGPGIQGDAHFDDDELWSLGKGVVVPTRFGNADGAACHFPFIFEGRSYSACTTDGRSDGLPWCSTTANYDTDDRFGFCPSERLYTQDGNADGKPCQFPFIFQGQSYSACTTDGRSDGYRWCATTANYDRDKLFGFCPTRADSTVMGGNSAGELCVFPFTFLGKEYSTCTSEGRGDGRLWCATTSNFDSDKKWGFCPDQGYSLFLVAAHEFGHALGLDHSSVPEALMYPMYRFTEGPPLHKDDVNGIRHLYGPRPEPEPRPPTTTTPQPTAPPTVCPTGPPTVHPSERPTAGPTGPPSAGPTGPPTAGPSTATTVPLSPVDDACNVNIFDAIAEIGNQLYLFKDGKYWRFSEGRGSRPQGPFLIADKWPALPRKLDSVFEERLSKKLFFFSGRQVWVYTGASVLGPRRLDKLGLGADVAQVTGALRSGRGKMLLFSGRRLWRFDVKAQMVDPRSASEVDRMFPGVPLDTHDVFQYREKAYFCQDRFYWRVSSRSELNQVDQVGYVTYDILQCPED
Sequence of MMP9 (Enzo) (chain, as listed by the source): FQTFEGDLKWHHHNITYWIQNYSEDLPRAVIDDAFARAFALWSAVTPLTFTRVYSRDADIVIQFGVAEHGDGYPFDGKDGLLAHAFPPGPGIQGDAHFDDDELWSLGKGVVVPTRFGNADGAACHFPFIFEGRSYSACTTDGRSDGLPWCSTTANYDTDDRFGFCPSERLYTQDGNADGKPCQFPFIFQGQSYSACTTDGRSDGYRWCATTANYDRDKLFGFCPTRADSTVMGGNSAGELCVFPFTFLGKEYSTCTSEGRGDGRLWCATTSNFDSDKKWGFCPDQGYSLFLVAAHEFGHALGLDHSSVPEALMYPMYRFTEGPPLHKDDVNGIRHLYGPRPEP
Sequence of MMP3 (Enzo) (chain, as listed by the source): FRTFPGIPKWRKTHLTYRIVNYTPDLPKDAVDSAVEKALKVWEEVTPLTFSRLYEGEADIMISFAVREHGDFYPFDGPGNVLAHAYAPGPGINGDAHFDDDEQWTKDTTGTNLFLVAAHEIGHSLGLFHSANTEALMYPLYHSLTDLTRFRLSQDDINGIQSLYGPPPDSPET
Sequence of MMP10 (Enzo) (chain, as listed by the source): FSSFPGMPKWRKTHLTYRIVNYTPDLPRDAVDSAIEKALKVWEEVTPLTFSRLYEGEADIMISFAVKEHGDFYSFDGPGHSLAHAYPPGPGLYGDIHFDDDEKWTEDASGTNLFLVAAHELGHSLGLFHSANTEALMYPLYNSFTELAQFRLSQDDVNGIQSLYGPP
Sequence of MMP2 (Enzo) (chain, as listed by the source): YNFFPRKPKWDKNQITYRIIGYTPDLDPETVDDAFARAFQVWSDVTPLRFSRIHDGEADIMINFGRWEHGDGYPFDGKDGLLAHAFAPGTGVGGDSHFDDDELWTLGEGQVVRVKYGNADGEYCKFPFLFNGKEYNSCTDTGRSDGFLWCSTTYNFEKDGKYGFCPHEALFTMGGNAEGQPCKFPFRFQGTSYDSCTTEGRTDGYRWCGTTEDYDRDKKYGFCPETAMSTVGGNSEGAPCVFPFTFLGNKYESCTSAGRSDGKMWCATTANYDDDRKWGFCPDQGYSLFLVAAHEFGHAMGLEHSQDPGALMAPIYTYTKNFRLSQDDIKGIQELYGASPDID
Sequence of MMP8 (Enzo) (chain, as listed by the source): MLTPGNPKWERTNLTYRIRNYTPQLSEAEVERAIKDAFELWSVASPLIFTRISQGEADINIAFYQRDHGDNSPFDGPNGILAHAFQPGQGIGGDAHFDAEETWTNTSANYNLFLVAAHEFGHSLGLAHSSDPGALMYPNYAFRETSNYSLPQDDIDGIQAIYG

In turn, Active MMP-9 (Alere San Diego) came in with an OD405 (ELISA, streptavidin plate, CF1522-AP) at 0.39 ng/ml MMP9 of 0.14 OD405; an OD405 (ELISA, streptavidin plate, CF1522-AP) at 0.78 ng/ml MMP9 of 0.14 OD405; an OD405 (ELISA, streptavidin plate, CF1522-AP) at 1.56 ng/ml MMP9 of 0.14 OD405; an OD405 (ELISA, streptavidin plate, CF1522-AP) at 3.13 ng/ml MMP9 of 0.13 OD405. For the same substance, the OD405 (ELISA, streptavidin plate, CF1522-AP) at 6.25 ng/ml MMP9 was 0.17 OD405; the OD405 (ELISA, streptavidin plate, CF1522-AP) at 12.50 ng/ml MMP9 was found to be 0.18 OD405; the OD405 (ELISA, streptavidin plate, CF1522-AP) at 25.00 ng/ml MMP9 was 0.27 OD405; the OD405 (ELISA, streptavidin plate, CF1522-AP) at 50.00 ng/ml MMP9 amounted to 0.5 OD405. In addition, the reader value (lateral flow, CF1522-gold at the polystreptavidin test line) at 0.9765625 ng/ml MMP9 turned out to be 338 reader units; the reader value (lateral flow, CF1522-gold at the polystreptavidin test line) at 1.953125 ng/ml MMP9 was 343 reader units; the reader value (lateral flow, CF1522-gold at the polystreptavidin test line) at 3.90625 ng/ml MMP9 is 413 reader units; the reader value (lateral flow, CF1522-gold at the polystreptavidin test line) at 7.8125 ng/ml MMP9 was determined as 524 reader units. The reader value (lateral flow, CF1522-gold at the polystreptavidin test line) at 15.625 ng/ml MMP9 is 882 reader units; the reader value (lateral flow, CF1522-gold at the polystreptavidin test line) at 31.25 ng/ml MMP9 was 2030 reader units; the reader value (lateral flow, CF1522-gold at the polystreptavidin test line) at 62.5 ng/ml MMP9 worked out at 3830 reader units; the reader value (lateral flow, CF1522-gold at the polystreptavidin test line) at 125 ng/ml MMP9 turned out to be 5580 reader units. The same substance had a reader value (lateral flow, CF1522-gold at the polystreptavidin test line) at 250 ng/ml MMP9 of 6220 reader units; a reader value (lateral flow, CF1522-gold at the polystreptavidin test line) at 500 ng/ml MMP9 of 6730 reader units; a reader value (lateral flow, CF1522-gold at the polystreptavidin test line) at 1000 ng/ml MMP9 of 6770 reader units.

MMP2 (Enzo) displayed a Reader value (lateral flow, CF1522-gold) with MMP at 0.5 ug/ml of 1610 reader units.

MMP3 (Enzo) registered a Reader value (lateral flow, CF1522-gold) with MMP at 0.5 ug/ml of 336 reader units.

With MMP8 (Enzo), the Reader value (lateral flow, CF1522-gold) with MMP at 0.5 ug/ml is 1140 reader units.

In the case of MMP9 (Enzo), the Reader value (lateral flow, CF1522-gold) with MMP at 0.5 ug/ml was 3840 reader units.

The substance MMP10 (Enzo) gave a Reader value (lateral flow, CF1522-gold) with MMP at 0.5 ug/ml of 444 reader units.
